# Literature values, collected in PMC3774674.
# Target: E-cadherin EC12 (Mus musculus) (UniProt P09803)
substance,measurement,value
E-cadherin EC12 (from UniProt P09803),Kd,98.6 µM
